# Measurements as given in the FLAb antibody collection (doi:10.7554/elife.23156).
# B1: scFv; the commonest letter at each place (parent)
# chain 1: EVKLDETGGGLVQPGRPMKLSCVASGFTFSDYWMNWVRQSPEKGLEWVAQIRNKPYNYETYYSDSVKGRFTISRDDSKSSVYLQMNNLRVEDMGIYYCTGSYYGMDYWGQGTSVTVS
# chain 2: DVVMTQTPLSLPVSLGDQASISCRSSQSLVHSNGNTYLRWYLQKPGQSPKVLIYKVSNRFSGVPDRFSGSGSGTDFTLKISRVEAEDLGVYFCSQSTHVPWTFGGGTKLEIK
# How the values were obtained:
# fluorescein = variants of: B1; test: Kd (Tite-Seq); conditions: with fluorescein; format: scFv 4-4-20, heavy + light
# [1] = variants of: B1; test: yeast surface expression (ratio to wild type); higher = more expressed; conditions: format: scFv 4-4-20, heavy + light
Variant,Kd (fluorescein),yeast surface expression [1]
chain 1 S30N W36N,≥ 10 µM,0.265
chain 1 S101Y D106K,≥ 10 µM,0.117
chain 1 W33G,≥ 10 µM,0.809
chain 1 W33M,≥ 10 µM,0.887
chain 1 W33L,≥ 10 µM,0.824
chain 1 F29Y M34K,≥ 10 µM,0.646
chain 1 D106M Y107C,≥ 10 µM,0.228
chain 1 Y32D M34Y,≥ 10 µM,0.756
chain 1 F29V W33N,≥ 10 µM,0.722
chain 1 D106F G109A,≥ 10 µM,0.112
chain 1 G104C Y107V,≥ 10 µM,0.461
chain 1 M34I N35Y V37Y,≥ 10 µM,0.45
chain 1 W33D M34Q,≥ 10 µM,0.754
chain 1 S101Y G104C,≥ 10 µM,0.249
chain 1 G104R D106M,≥ 10 µM,0.275
chain 1 Y32F M34Q,≥ 10 µM,0.502
chain 1 F29D W33V,≥ 10 µM,0.87
chain 1 S30H W33A,≥ 10 µM,0.733
chain 1 G100N S101I,≥ 10 µM,0.189
chain 1 M34P N35R,≥ 10 µM,1.16
chain 1 S30G N35P W36F,≥ 10 µM,0.718
chain 1 M105G,≥ 10 µM,0.761
chain 1 M105S G109C,≥ 10 µM,0.182
chain 1 F29P W33E,≥ 10 µM,0.722
chain 1 F29P W33G,≥ 10 µM,0.951
chain 1 N35G V37K,≥ 10 µM,0.46

Variant,Kd (fluorescein),yeast surface expression [1]
chain 1 F29D Y32E,≥ 10 µM,0.599
chain 1 G100Y S101E,≥ 10 µM,0.708
chain 1 S101Q Y102R,≥ 10 µM,1.07
chain 1 W36S V37D,≥ 10 µM,1.34
chain 1 Y107T G109C,≥ 10 µM,0.278
chain 1 D106N W108K,≥ 10 µM,0.446
chain 1 F29N V37T,≥ 10 µM,0.668
chain 1 D106L G109S,≥ 10 µM,0.464
chain 1 D31P W33S,≥ 10 µM,0.352
chain 1 Y103E W108N,≥ 10 µM,0.446
chain 1 T28G W36N,≥ 10 µM,0.456
chain 1 F29N S30Q N35K,≥ 10 µM,2.76
chain 1 M105P W108E G109W,≥ 10 µM,0.297
chain 1 Y103I M105E,≥ 10 µM,0.733
chain 1 G100D Y103C,≥ 10 µM,0.414
chain 1 Y107G W108L G109E,≥ 10 µM,0.331
chain 1 S101K G104W M105V,≥ 10 µM,0.205
chain 1 Y103E Y107V,≥ 10 µM,1.07
chain 1 M105Q D106Q,≥ 10 µM,1.01
chain 1 G100T S101D,≥ 10 µM,0.83
chain 1 G104T W108F,≥ 10 µM,0.329
chain 1 G100T M105G,≥ 10 µM,0.878
chain 1 G100T M105C,≥ 10 µM,0.754
chain 1 N35C W36F,≥ 10 µM,0.644
chain 1 S101V Y107H,≥ 10 µM,0.556
chain 1 F29Q W36T,≥ 10 µM,0.359

Variant,Kd (fluorescein),yeast surface expression [1]
chain 1 Y102H G109P,≥ 10 µM,0.281
chain 1 S101H D106C,≥ 10 µM,0.467
chain 1 S30V W33A,≥ 10 µM,0.748
chain 1 S101H Y107R W108C,≥ 10 µM,0.22
chain 1 G104M M105R,≥ 10 µM,0.619
chain 1 G100N G104F,≥ 10 µM,0.321
chain 1 T28W N35H,≥ 10 µM,0.727
chain 1 D106Y G109D,≥ 10 µM,0.224
chain 1 D106Y G109K,≥ 10 µM,0.136
chain 1 D31G N35H,≥ 10 µM,0.64
chain 1 T28S Y32F W36H,≥ 10 µM,0.533
chain 1 T28C M34S,≥ 10 µM,0.611
chain 1 Y32Q W33N,≥ 10 µM,0.726
chain 1 Y102C G109R,≥ 10 µM,0.304
chain 1 S101F G104I,≥ 10 µM,0.187
chain 1 G104D Y107L,≥ 10 µM,1.18
chain 1 G104D Y107F,≥ 10 µM,0.945
chain 1 G104D Y107D,≥ 10 µM,0.716
chain 1 W33M M34H N35K,≥ 10 µM,0.305
chain 1 Y103A G104Y G109T,≥ 10 µM,0.211
chain 1 Y32Q M34G V37K,≥ 10 µM,1.04
chain 1 F29N W36H,≥ 10 µM,0.279
chain 1 S101V G109P,≥ 10 µM,0.223
chain 1 F29P Y32P,≥ 10 µM,0.856
chain 1 G100R G104S,≥ 10 µM,0.28

# Now from value to variant, other results behind:
Kd (fluorescein),Variant,yeast surface expression [1]
0.02 µM,chain 1 S30T W36M,0.705
≥ 10 µM,chain 1 G100W D106S W108L,0.243
≥ 10 µM,chain 1 Y103S G104D,1.12
0.00325 µM,chain 1 F29I,1.01
0.000783 µM,chain 1 F29Y,0.978
≥ 10 µM,chain 1 Y103P D106M,0.742
0.000988 µM,chain 1 T28K,1.07
≥ 10 µM,chain 1 S30D W33N,1.07
0.205 µM,chain 1 D31V V37E,0.807
4.37 µM,chain 1 S30D V37F,0.942
0.0353 µM,chain 1 M34I V37S,0.776
≥ 10 µM,chain 1 Y103W G104F M105E,0.578
≥ 10 µM,chain 1 W33C M34G N35E,1.65
≥ 10 µM,chain 1 D106P W108M,0.714
≥ 10 µM,chain 1 D31A V37E,2.19
≥ 10 µM,chain 1 Y102L G109N,0.369
≥ 10 µM,chain 1 M105Q W108E,0.438
≥ 10 µM,chain 1 G100R Y103V W108N,0.274
≥ 10 µM,chain 1 D31C W33C,0.579

Kd (fluorescein),Variant,yeast surface expression [1]
≥ 10 µM,chain 1 F29M W36V,0.782
0.00606 µM,chain 1 F29M D31N Y32A,1.2
3.37 µM,chain 1 M105C D106S,0.728
0.205 µM,chain 1 Y32W M34N,0.386
9.02 µM,chain 1 D31S V37H,0.644
0.021 µM,chain 1 M105R,1
0.00279 µM,chain 1 G100C Y102A,1.47
2.11 µM,chain 1 D31T W33F,0.629
0.00122 µM,chain 1 T28L S30N,0.861
0.021 µM,chain 1 G104Y G109R,1.08
2.01 µM,chain 1 F29P V37K,0.288
8.56 µM,chain 1 D31H Y32S,0.802
0.00162 µM,chain 1 Y102A,1.17
0.00293 µM,chain 1 M34T,0.777
0.00575 µM,chain 1 T28K S30K M34Y,0.855
0.00128 µM,chain 1 T28W V37C,0.75
0.102 µM,chain 1 Y107R,0.767
0.0221 µM,chain 1 T28L D31L,0.425
0.00708 µM,chain 1 T28M S30W,0.645
